{
  "source": "patent US20250382602",
  "settings_in_all_cases": "nanopore translocation; background mutations not given",
  "key": {"[1]": {"target": "T1, Dda 1993 K177E K177E (Enterobacteria phage T4) (UniProt P32270)", "T1 sequence": "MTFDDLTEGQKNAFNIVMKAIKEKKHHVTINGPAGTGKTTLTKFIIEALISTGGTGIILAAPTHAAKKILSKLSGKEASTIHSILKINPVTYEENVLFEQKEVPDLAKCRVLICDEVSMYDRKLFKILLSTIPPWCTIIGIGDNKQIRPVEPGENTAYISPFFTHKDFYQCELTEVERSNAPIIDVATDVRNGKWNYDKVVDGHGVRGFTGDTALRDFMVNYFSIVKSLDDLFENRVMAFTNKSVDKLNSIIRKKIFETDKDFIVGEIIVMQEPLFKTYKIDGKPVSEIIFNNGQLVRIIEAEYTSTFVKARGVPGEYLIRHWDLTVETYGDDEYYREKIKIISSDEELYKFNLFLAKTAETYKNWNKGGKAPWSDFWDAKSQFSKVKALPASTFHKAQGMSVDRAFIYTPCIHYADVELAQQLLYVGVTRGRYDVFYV"}, "[2]": {"target": "T2, Dda 1993 K177F K177F (Enterobacteria phage T4) (UniProt P32270)", "T2 sequence": "T1 sequence with E177F"}, "[3]": {"target": "T3, Dda 1993 K177S K177S (Enterobacteria phage T4) (UniProt P32270)", "T3 sequence": "T1 sequence with E177S"}, "[4]": {"target": "T4, Dda 1993 K177W K177W (Enterobacteria phage T4) (UniProt P32270)", "T4 sequence": "T1 sequence with E177W"}, "[5]": {"target": "T5, Dda 1993 K177G K177G (Enterobacteria phage T4) (UniProt P32270)", "T5 sequence": "T1 sequence with E177G"}, "[6]": {"target": "T6, Dda 1993 K177L K177L (Enterobacteria phage T4) (UniProt P32270)", "T6 sequence": "T1 sequence with E177L"}},
  "note": "Substitutions are numbered along the chain they refer to.",
  "data": [
    {"substance": "barcoded 3.6 kb DNA analyte ligated to sequencing Y adaptor", "values": [
      {"measurement": "activity (bps speed delta vs control)", "setting": "[1]", "value": 58.7},
      {"measurement": "activity (bps speed delta vs control)", "setting": "[2]", "value": -33.4},
      {"measurement": "activity (bps speed delta vs control)", "setting": "[3]", "value": -31.1},
      {"measurement": "activity (bps speed delta vs control)", "setting": "[4]", "value": -23.4},
      {"measurement": "activity (bps speed delta vs control)", "setting": "[5]", "value": -27.6},
      {"measurement": "activity (bps speed delta vs control)", "setting": "[6]", "value": 51.4}
    ]}
  ]
}
